The record followed here is article PMC10786891, “Massively parallel profiling of RNA-targeting CRISPR-Cas13d”.

First the molecules themselves.
T1: EsCas13d, nuclease-dead (Eubacterium siraeum, UniProt B0MS50, R295A;H300A;R849A;H854A)
T1 sequence: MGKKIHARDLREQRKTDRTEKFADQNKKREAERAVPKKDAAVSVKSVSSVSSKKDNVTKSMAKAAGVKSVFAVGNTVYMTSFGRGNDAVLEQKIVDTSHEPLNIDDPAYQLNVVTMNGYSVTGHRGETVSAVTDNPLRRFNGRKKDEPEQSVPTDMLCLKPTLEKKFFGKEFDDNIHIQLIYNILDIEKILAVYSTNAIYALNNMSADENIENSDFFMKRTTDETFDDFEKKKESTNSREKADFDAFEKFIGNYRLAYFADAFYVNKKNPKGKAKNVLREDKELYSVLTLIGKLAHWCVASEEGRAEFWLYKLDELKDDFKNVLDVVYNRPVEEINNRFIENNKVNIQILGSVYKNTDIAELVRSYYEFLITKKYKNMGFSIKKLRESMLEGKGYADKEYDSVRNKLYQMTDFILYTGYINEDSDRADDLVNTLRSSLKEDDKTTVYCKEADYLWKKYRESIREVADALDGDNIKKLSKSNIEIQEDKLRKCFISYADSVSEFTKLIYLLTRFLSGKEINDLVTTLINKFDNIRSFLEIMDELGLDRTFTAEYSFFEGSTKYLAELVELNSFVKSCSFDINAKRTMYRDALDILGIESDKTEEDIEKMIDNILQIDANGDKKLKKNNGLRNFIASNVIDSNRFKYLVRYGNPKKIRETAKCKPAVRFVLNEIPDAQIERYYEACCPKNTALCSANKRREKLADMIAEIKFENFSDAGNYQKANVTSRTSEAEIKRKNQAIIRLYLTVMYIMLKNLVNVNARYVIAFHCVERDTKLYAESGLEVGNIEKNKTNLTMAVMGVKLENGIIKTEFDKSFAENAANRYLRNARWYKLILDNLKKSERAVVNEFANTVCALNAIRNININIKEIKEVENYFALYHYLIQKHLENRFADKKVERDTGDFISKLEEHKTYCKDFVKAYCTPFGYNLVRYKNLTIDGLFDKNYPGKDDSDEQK

B1: target 2 MT 5'PFS GGA 3'PFS UCC (mixed)
RNA 1: CACCCGUGCAAAAUUGCAGGGGUCUAAAACCUUCUCCAAAUUGUUUCAUCCU
RNA 2: GGGAAUGGAUCCACAUCUACGAAUUCGGAAGGAUGAAACAAUUUGGAGAAGUCCAGAUCGGAAGAGCACACGU
B2: target 2 MT 5'PFS GGA 3'PFS CCA (mixed)
RNA 1: CACCCGUGCAAAAUUGCAGGGGUCUAAAACCUUCUCCAAAUUGUUUCAUCCU
RNA 2: GGGAAUGGAUCCACAUCUACGAAUUCGGAAGGAUGAAACAAUUUGGAGAAGCCAAGAUCGGAAGAGCACACGU
B3: target 2 MT 5'PFS GGC 3'PFS UUA (mixed)
RNA 1: CACCCGUGCAAAAUUGCAGGGGUCUAAAACCUUCUCCAAAUUGUUUCAUCCU
RNA 2: GGGAAUGGAUCCACAUCUACGAAUUCGGCAGGAUGAAACAAUUUGGAGAAGUUAAGAUCGGAAGAGCACACGU
B4: target 2 MT 5'PFS CAC 3'PFS CUU (mixed)
RNA 1: CACCCGUGCAAAAUUGCAGGGGUCUAAAACCUUCUCCAAAUUGUUUCAUCCU
RNA 2: GGGAAUGGAUCCACAUCUACGAAUUCCACAGGAUGAAACAAUUUGGAGAAGCUUAGAUCGGAAGAGCACACGU
B5: target 2 MT 5'PFS GGA 3'PFS CCG (mixed)
RNA 1: CACCCGUGCAAAAUUGCAGGGGUCUAAAACCUUCUCCAAAUUGUUUCAUCCU
RNA 2: GGGAAUGGAUCCACAUCUACGAAUUCGGAAGGAUGAAACAAUUUGGAGAAGCCGAGAUCGGAAGAGCACACGU
B6: target 2 MT 5'PFS CUA 3'PFS UAG (mixed)
RNA 1: CACCCGUGCAAAAUUGCAGGGGUCUAAAACCUUCUCCAAAUUGUUUCAUCCU
RNA 2: GGGAAUGGAUCCACAUCUACGAAUUCCUAAGGAUGAAACAAUUUGGAGAAGUAGAGAUCGGAAGAGCACACGU
B7: target 2 MT 5'PFS GGU 3'PFS CGC (mixed)
RNA 1: CACCCGUGCAAAAUUGCAGGGGUCUAAAACCUUCUCCAAAUUGUUUCAUCCU
RNA 2: GGGAAUGGAUCCACAUCUACGAAUUCGGUAGGAUGAAACAAUUUGGAGAAGCGCAGAUCGGAAGAGCACACGU
B8: target 2 MT 5'PFS CUG 3'PFS CGC (mixed)
RNA 1: CACCCGUGCAAAAUUGCAGGGGUCUAAAACCUUCUCCAAAUUGUUUCAUCCU
RNA 2: GGGAAUGGAUCCACAUCUACGAAUUCCUGAGGAUGAAACAAUUUGGAGAAGCGCAGAUCGGAAGAGCACACGU
B9: target 2 MT 5'PFS GAC 3'PFS ACU (mixed)
RNA 1: CACCCGUGCAAAAUUGCAGGGGUCUAAAACCUUCUCCAAAUUGUUUCAUCCU
RNA 2: GGGAAUGGAUCCACAUCUACGAAUUCGACAGGAUGAAACAAUUUGGAGAAGACUAGAUCGGAAGAGCACACGU
B10: target 2 MT 5'PFS GGC 3'PFS UUC (mixed)
RNA 1: CACCCGUGCAAAAUUGCAGGGGUCUAAAACCUUCUCCAAAUUGUUUCAUCCU
RNA 2: GGGAAUGGAUCCACAUCUACGAAUUCGGCAGGAUGAAACAAUUUGGAGAAGUUCAGAUCGGAAGAGCACACGU
B11: target 2 MT 5'PFS CAA 3'PFS UCC (mixed)
RNA 1: CACCCGUGCAAAAUUGCAGGGGUCUAAAACCUUCUCCAAAUUGUUUCAUCCU
RNA 2: GGGAAUGGAUCCACAUCUACGAAUUCCAAAGGAUGAAACAAUUUGGAGAAGUCCAGAUCGGAAGAGCACACGU
B12: target 2 MT 5'PFS UAA 3'PFS UGU (mixed)
RNA 1: CACCCGUGCAAAAUUGCAGGGGUCUAAAACCUUCUCCAAAUUGUUUCAUCCU
RNA 2: GGGAAUGGAUCCACAUCUACGAAUUCUAAAGGAUGAAACAAUUUGGAGAAGUGUAGAUCGGAAGAGCACACGU
B13: target 2 MT 5'PFS CUG 3'PFS AUU (mixed)
RNA 1: CACCCGUGCAAAAUUGCAGGGGUCUAAAACCUUCUCCAAAUUGUUUCAUCCU
RNA 2: GGGAAUGGAUCCACAUCUACGAAUUCCUGAGGAUGAAACAAUUUGGAGAAGAUUAGAUCGGAAGAGCACACGU
B14: target 2 MT 5'PFS GGU 3'PFS CGG (mixed)
RNA 1: CACCCGUGCAAAAUUGCAGGGGUCUAAAACCUUCUCCAAAUUGUUUCAUCCU
RNA 2: GGGAAUGGAUCCACAUCUACGAAUUCGGUAGGAUGAAACAAUUUGGAGAAGCGGAGAUCGGAAGAGCACACGU
B15: target 2 MT 5'PFS UAG 3'PFS CGC (mixed)
RNA 1: CACCCGUGCAAAAUUGCAGGGGUCUAAAACCUUCUCCAAAUUGUUUCAUCCU
RNA 2: GGGAAUGGAUCCACAUCUACGAAUUCUAGAGGAUGAAACAAUUUGGAGAAGCGCAGAUCGGAAGAGCACACGU
B16: target 2 MT 5'PFS GGU 3'PFS CGU (mixed)
RNA 1: CACCCGUGCAAAAUUGCAGGGGUCUAAAACCUUCUCCAAAUUGUUUCAUCCU
RNA 2: GGGAAUGGAUCCACAUCUACGAAUUCGGUAGGAUGAAACAAUUUGGAGAAGCGUAGAUCGGAAGAGCACACGU
B17: target 2 MT 5'PFS GUC 3'PFS UGA (mixed)
RNA 1: CACCCGUGCAAAAUUGCAGGGGUCUAAAACCUUCUCCAAAUUGUUUCAUCCU
RNA 2: GGGAAUGGAUCCACAUCUACGAAUUCGUCAGGAUGAAACAAUUUGGAGAAGUGAAGAUCGGAAGAGCACACGU
B18: target 2 MT 5'PFS CAG 3'PFS CCG (mixed)
RNA 1: CACCCGUGCAAAAUUGCAGGGGUCUAAAACCUUCUCCAAAUUGUUUCAUCCU
RNA 2: GGGAAUGGAUCCACAUCUACGAAUUCCAGAGGAUGAAACAAUUUGGAGAAGCCGAGAUCGGAAGAGCACACGU
B19: target 2 MT 5'PFS ACA 3'PFS AAU (mixed)
RNA 1: CACCCGUGCAAAAUUGCAGGGGUCUAAAACCUUCUCCAAAUUGUUUCAUCCU
RNA 2: GGGAAUGGAUCCACAUCUACGAAUUCACAAGGAUGAAACAAUUUGGAGAAGAAUAGAUCGGAAGAGCACACGU
B20: target 2 MT 5'PFS AAC 3'PFS UAU (mixed)
RNA 1: CACCCGUGCAAAAUUGCAGGGGUCUAAAACCUUCUCCAAAUUGUUUCAUCCU
RNA 2: GGGAAUGGAUCCACAUCUACGAAUUCAACAGGAUGAAACAAUUUGGAGAAGUAUAGAUCGGAAGAGCACACGU
B21: target 2 MT 5'PFS AAC 3'PFS ACC (mixed)
RNA 1: CACCCGUGCAAAAUUGCAGGGGUCUAAAACCUUCUCCAAAUUGUUUCAUCCU
RNA 2: GGGAAUGGAUCCACAUCUACGAAUUCAACAGGAUGAAACAAUUUGGAGAAGACCAGAUCGGAAGAGCACACGU
B22: target 2 MT 5'PFS UAA 3'PFS UGC (mixed)
RNA 1: CACCCGUGCAAAAUUGCAGGGGUCUAAAACCUUCUCCAAAUUGUUUCAUCCU
RNA 2: GGGAAUGGAUCCACAUCUACGAAUUCUAAAGGAUGAAACAAUUUGGAGAAGUGCAGAUCGGAAGAGCACACGU
B23: target 2 MT 5'PFS GGU 3'PFS CGA (mixed)
RNA 1: CACCCGUGCAAAAUUGCAGGGGUCUAAAACCUUCUCCAAAUUGUUUCAUCCU
RNA 2: GGGAAUGGAUCCACAUCUACGAAUUCGGUAGGAUGAAACAAUUUGGAGAAGCGAAGAUCGGAAGAGCACACGU
B24: target 2 MT 5'PFS AAC 3'PFS ACG (mixed)
RNA 1: CACCCGUGCAAAAUUGCAGGGGUCUAAAACCUUCUCCAAAUUGUUUCAUCCU
RNA 2: GGGAAUGGAUCCACAUCUACGAAUUCAACAGGAUGAAACAAUUUGGAGAAGACGAGAUCGGAAGAGCACACGU
B25: target 2 MT 5'PFS GGA 3'PFS UCU (mixed)
RNA 1: CACCCGUGCAAAAUUGCAGGGGUCUAAAACCUUCUCCAAAUUGUUUCAUCCU
RNA 2: GGGAAUGGAUCCACAUCUACGAAUUCGGAAGGAUGAAACAAUUUGGAGAAGUCUAGAUCGGAAGAGCACACGU
B26: target 1 G5U,G17A (mixed)
RNA 1: CACCCGUGCAAAAAUGCAGGGGUCUAAAACUGAGCGGAUAACCUCUCUAUGG
RNA 2: GGGAAUGGAUCCACAUCUACGAAUUCGUACCAUAAAGAGGUUAUCCUCUCACCGAGAUCGGAAGAGCACACGU
B27: target 1 insG 3' of 4,insG 3' of 1 (mixed)
RNA 1: CACCCGUGCAAAAAUGCAGGGGUCUAAAACUGAGCGGAUAACCUCUCUAUGG
RNA 2: GGGAAUGGAUCCACAUCUACGAAUUCGUACCAUAGAGAGGUUAUCCGCGUCAGCCGAGAUCGGAAGAGCACACGU

The target of this series is T1, EsCas13d, nuclease-dead. Put plainly: crRNA (strand 1, pre-loaded); Mg2+; 40 mM Tris-HCl pH 7.5, 150 mM NaCl, 6 mM MgCl2, 1 mM DTT, 0.1% Tween-20, 0.2 mg/ml BSA; 25 C; 10 min per concentration, then washed. The settings on record: tags: His6-TwinStrep-SUMO cleaved; N-terminal SNAP kept (SNAP-Surface 488); label: 3' end held by stalled T7 RNA polymerase.
As usually defined, the Kd is the free concentration of one partner at which half of the binding sites on the other are occupied at equilibrium, for simple one-to-one binding. As for B1, binding was characterised by a dissociation constant (Kd) of 24.2 ± 2.8 nM.

B2: the dissociation constant Kd came out at 27 ± 5 nM. The molecule B3 showed a Kd of 15.2 ± 1.8 nM. Next, B4: 2.31 ± 0.3 nM.

In turn, B5 yielded a Kd of 12.3 ± 1.2 nM. In turn, B6 had a Kd of 1.9 ± 0.4 nM. With B7, the Kd was 15.1 ± 1.4 nM.

Molecule B8 registered a Kd of 4 ± 0.4 nM. Next, B9: 30 ± 10 nM.

As to B10, the Kd was determined as 18.8 ± 2.3 nM. The result for B11 reads 7.3 ± 0.6 nM; that for B12, 9.5 ± 1.5 nM. The result for B13 reads 2.57 ± 0.22 nM; that for B14, 15.6 ± 1.4 nM; that for B15, 2.36 ± 0.26 nM.

B16 gave a Kd of 22.3 ± 2.6 nM.

On to B17, for which the Kd was found to be 17.4 ± 2.6 nM.

B18 showed a Kd of 11.9 ± 3 nM. B19 returned a Kd of 5.7 ± 1.3 nM. B20 displayed a Kd of 5.4 ± 0.8 nM.

Molecule B21 registered a Kd of 7 ± 2.4 nM. B22: the Kd is 5.6 ± 1.2 nM. Next, B23: 15.4 ± 2.1 nM; B24: 6.1 ± 1.6 nM. B25 had a Kd of 22 ± 4 nM. In turn, B26 returned a Kd of 91 ± 15 nM.

Molecule B27 gave a Kd of 6 ± 0.4 nM.
